According to PMC8985508:
pIC50, pKd: −log10 of the molar value.

Biological target: trastuzumab
Assay: fluorescence polarisation

Row | Substance | pKd | pIC50
1 | Fc-III labeled with fluorescein (Fc-III-FAM) (peptide) | 7.85 | 
2 | Fc-III peptide (wild-type Fc-III) |  | 7.24
3 | NH2-PEG20-Fc-III (peptide) |  | 7.04
